Experimental findings from patent US6801029B2, “Microwave dielectric spectroscopy method and apparatus” (Wisconsin Alumni Research Foundation, priority 2001, dated 2004) are described below.

Data set [1] can be described thus: Thermal unfolding of RNase A monitored by UV/VIS absorbance at 288 nm, two-state model. The data set is classed as physicochemical. The method, then:
(§1) Bovine pancreatic ribonuclease A (RNase A) was purchased from Sigma (St. Louis, Mo.) and used without further purification. All other reagents were purchased from Fisher Scientific (Pittsburgh, Pa.). Lyophilized protein was dissolved in a solution of 30 mM sodium acetate/acetic acid, 100 mM sodium chloride, pH 4.5, then dialyzed exhaustively before use. Protein concentrations were determined by UV-VIS spectroscopy. The extinction coefficient was taken as 0.72 mg^−1mL cm^−1 at 278 nm. Concentrations of RNase A varied from 0.2 to 1 mg/mL (14.6 to 73.0 μM). The environmental condition of the sample that was changed was temperature. RNase A was unfolded reversibly by increasing the temperature of the sample at a maximum rate of 0.4° C./min. The unfolding reaction was monitored using UV/VIS absorbance at 288 nm.
The unfolding of RNase A may be observed using UV/VIS absorbance. At low protein concentrations, the absorbance of RNase A follows Beer's Law:
where A(λ) is the absorbance, ε(λ,T) is the extinction coefficient, c is the protein concentration, and l is the path length. For selected proteins, the extinction coefficient ε depends not only on the wavelength λ and the temperature T, but also on the protein conformation. Such a dependence of ε on conformation is called a hyperchromic shift. For RNase A, the maximal hyperchromic shift occurs at approximately 288 nm.
Here, N refers to native protein, U refers to unfolded protein, Tm is the midpoint temperature (at which FN=FU=0.5 and ΔG=0 kcal/mol), ΔHm is the enthalpy at the midpoint temperature, α is the observed signal (in this case, UV/VIS absorbance), and αN and αU are the observed signals for native and unfolded protein, respectively. Since the unfolding of RNase A is a unimolecular reaction, thermodynamic parameters such as enthalpy, free energy, and mid-point temperature are independent of concentration. […] Analysis of unfolding of RNase A yields an average Tm of 58.2° C. and an average ΔHm of 74.9 kcal/mol.
Other researchers have implied that the presence of microwave radiation destabilizes protein, and may enhance rates of folding and unfolding. […] The differences in Tm and ΔHm are within experimental error and are not thought to be significant.

The nature of data set [2]: Thermal unfolding of RNase A by microwave dielectric spectroscopy (slot antenna s11 log mag, Lorentzian peak positions fitted to 2-state model). It counts as physicochemical.
Text: A coaxial-fed slot antenna 25 was manufactured from RO-4002 (Rogers Corporation, Rogers, Conn.) on a LPKF ProtoMat using BoardMaster 3.0 (LPKF Laser & Electronics AG, Germany). The coaxial feed was composed of semi-rigid PE-047SR (Pasternack Enterprises, Irvine, Calif.). The dimensions of the antenna were chosen to yield a resonant frequency of approximately 3 GHz. This frequency was selected to optimize the interaction of microwave radiation with “bound water,” assumed to undergo dispersion at lower frequencies than bulk solution. The active range of the antenna extends from approximately 500 MHz to 6.5 GHz. The antenna was attached to a 0.5 cm Suprasil fused quartz UV/VIS cuvette 21 (Hellma GmbH & Co., Germany).
Microwave measurements were made utilizing as the analyzer 37 a Hewlett-Packard 8720D vector network analyzer (VNA) (Agilent Technologies, Palo Alto, Calif.) set to measure s11. The lowest power range −15 to +5 dBm was used for all experiments. The slot antenna 25 was attached to the VNA 37 using a standard 50 Ω coaxial cable 35. UV/VIS absorption measurements were performed using a Hewlett-Packard 8452A diode-array spectrophotometer with a water-thermostatted cell holder (Agilent Technologies, Palo Alto, Calif.), functioning as the optical spectrometer 28 with detector 32. Both instruments were controlled using LabView (National Instruments Corporation, Austin, Tex.) via a GPIB connection.
Data analysis was performed in one of two ways: 1) Center frequency was determined by fitting spectra at each change of temperature or other environmental conditions to a number of Lorentzian peaks; or 2) Peak amplitude was determined for spectra at each change of temperature or other environmental condition. Commercial software such as Microcal Origin was used for both types of fitting. Data, either center frequency or amplitude, could be then plotted as a function of environmental condition and subjected to further analysis. For thermal unfolding experiments, peak center frequency determination yielded better results, perhaps because many peaks overlap. Peak amplitude determination was more successful for hormone binding experiments, probably because peaks were well-spaced and non-overlapping.
as §1
As with buffer alone, peak positions shift with temperature, and most peaks broaden with increasing temperature.
Spectra were fitted to eight Lorentzian peaks. […] Four peaks, identified in Table 1 below, responded in a sigmoidal fashion characteristic of cooperative unfolding; the remaining peaks increased or decreased monotonically with temperature.

The mark [3] stands for this setting: simultaneous UV/VIS and microwave measurements.
Where [4] appears, read: Lorentzian peak 1 (1.5 GHz at 30° C.).
[5] abbreviates: Lorentzian peak 4 (3.1 GHz at 30° C.).
The mark [6] stands for this setting: Lorentzian peak 5 (3.5 GHz at 30° C.).
[7] abbreviates: Lorentzian peak 7 (4.4 GHz at 30° C.).

B1: Bovine pancreatic ribonuclease A (protein, UniProt P61823 27-150, looked up)
Ribonuclease pancreatic: KETAAAKFERQHMDSSTSAASSSNYCNQMMKSRNLTKDRCKPVNTFVHESLADVQAVCSQKNVACKNGQTNCYQSYSTMSITDCRETGSSKYPNCAYKTTQANKHIIVACEGNPYVPVHFDASV
notes: Bovine pancreatic ribonuclease A purchased from Sigma, used without further purification
As a reminder, the Tm is the temperature at which the thermal transition is half complete. For B1, the Tm in data set [1] (UV/VIS alone) was 58.09 °C; in data set [1] (setting [3]) it was 58.91 °C; in data set [2] (setting [4]) it was 50.4 °C; in data set [2] (setting [5]), 58.3 °C; in data set [2] (setting [6]) it was 53.3 °C; in data set [2] (setting [7]) it was 60.9 °C. Further, the Tm in data set [2] (fit to all peaks (1, 4, 5, 7)) stood at 55.21 °C. Besides, the ΔHm turned out to be 76.8 kcal/mol in data set [1] (UV/VIS alone); 65.1 kcal/mol in data set [1] (setting [3]); 66.0 kcal/mol in data set [2] (setting [4]); 161.4 kcal/mol in data set [2] (setting [5]); 72.1 kcal/mol in data set [2] (setting [6]); 76.8 kcal/mol in data set [2] (setting [7]). The molecule also returned a ΔHm in data set [2] (fit to all peaks (1, 4, 5, 7)) of 54.2 kcal/mol. For the same molecule, in data set [1] (average, UV/VIS absorbance 288 nm, 30 mM sodium acetate/acetic acid, 100 mM NaCl, pH 4.5), the “average Tm (midpoint temperature of unfolding)” value amounted to 58.2 °C. Further, the “average ΔHm (enthalpy at midpoint temperature)” value in data set [1] (average, UV/VIS absorbance 288 nm, pH 4.5 buffer) stood at 74.9 kcal/mol.
